Structures are written as SMILES.

Here are results for two molecules from patent US7498317B2, “Antibacterial agents and process for producing the same” (Kabushiki Kaisha Yakult Honsha, priority 1998, dated 2009).

This data set deals with Helicobactor pylori. Description: Growth of Helicobactor pylori in 96-well microplate (turbidity at 600 nm). Conditions: 37° C. for 3 days; for suppression of the growth of Helicobactor pylori: 2 μL of 1 mg/mL added to 200 μL culture; for absorbance (turbidity at 600 nm): 2 μL of 1 mg/mL added to 200 μL of 1.5×10^8 CFU/mL in Brucella medium with 5% FCS, slightly aerobic, control group 0.835. It is filed as cell-based.

On to `CC1(C)S[C@@H]2[C@H](NC(=O)C(NCC(O)C3OCC(O)C3OC3OC(CO)C(OS(=O)(=O)O)C(O)C3O)c3ccccc3)C(=O)N2C1C(=O)O` (stereo partly shown) [CarrabioAM], for which the “suppression of the growth of Helicobactor pylori” value is listed as “totally suppressed the growth” and the “absorbance (turbidity at 600 nm)” value worked out at 0.003.

With `CON=C(C(=O)N[C@@H]1C(=O)N2C(C(=O)O)=C(COC(C)=O)CS[C@H]12)c1csc(NCC(O)C2OCC(O)C2OC2OC(CO)C(OS(=O)(=O)O)C(O)C2O)n1` (stereo partly shown) [CarrabioCTX], the “suppression of the growth of Helicobactor pylori” value is recorded as “totally suppressed the growth” and the “absorbance (turbidity at 600 nm)” value was 0.000.
